Source: US5770690, “Bax omega protein and methods” (Neurex Corporation, dated 1998)

Biological target: T1, Bax-ω GAL4-transactivation domain hybrid (plasmid Bax-ω-GAL424) (yeast; human)
T1 chain: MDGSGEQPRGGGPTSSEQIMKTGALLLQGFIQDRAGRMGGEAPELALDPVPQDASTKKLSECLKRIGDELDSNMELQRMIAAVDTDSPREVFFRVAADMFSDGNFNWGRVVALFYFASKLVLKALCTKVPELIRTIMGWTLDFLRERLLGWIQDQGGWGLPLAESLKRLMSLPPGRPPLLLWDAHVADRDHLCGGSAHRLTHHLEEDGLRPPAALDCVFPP
Experiment: yeast two-hybrid: β-galactosidase filter assay (SFY526) and growth in the absence of histidine (HF7C); (-) means white signal / no growth

B1: Bax-ω GAL4-DNA binding domain hybrid (plasmid Bax-ω-pAS1) (other)
chain: MDGSGEQPRGGGPTSSEQIMKTGALLLQGFIQDRAGRMGGEAPELALDPVPQDASTKKLSECLKRIGDELDSNMELQRMIAAVDTDSPREVFFRVAADMFSDGNFNWGRVVALFYFASKLVLKALCTKVPELIRTIMGWTLDFLRERLLGWIQDQGGWGLPLAESLKRLMSLPPGRPPLLLWDAHVADRDHLCGGSAHRLTHHLEEDGLRPPAALDCVFPP
- binding result: no binding
